According to the supplement of paper PMC9170038:

Test system: K4 kissing-loop RNA reporter
Assay: apparent KD of K4 kissing-loop reporter; higher = weaker reporter binding
Conditions: Eterna round: R107
Procedure: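 RNA-MaP round R107: designed RNA switches with theophylline, tryptophan, arginine or FMN aptamers are transcribed on-chip within common flanks. They are titrated with a labelled K4 kissing-loop RNA reporter in RNA-MaP buffer (100 mM Tris pH 7.5, 80 mM KCl, 4 mM MgCl2), without ligand or with the indicated ligand. Median apparent KD per design.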

[1] = input ligand: theophylline 20 uM
[2] = input ligand: tryptophan 2.4 mM
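Note: bound reporter read as fluorescence of individual clusters on recovered sequencing chips by microscopy, with normalized cluster intensities fitted with a binding model.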

| Sequence | apparent KD of K4 kissing-loop reporter (input ligand: FMN 200 uM) [nM] | apparent KD of K4 kissing-loop reporter (input ligand: arginine 13.2 mM) [nM] | apparent KD of K4 kissing-loop reporter (input ligand: none) [nM] | apparent KD of K4 kissing-loop reporter [1] [nM] | apparent KD of K4 kissing-loop reporter [2] [nM] |
| --- | --- | --- | --- | --- | --- |
| CUGACCAACAGCGAUACCAGUGUGGAGUGAUGUUCCCUGGUCCGGGCUGAUGUUCCCUUGCGCCCUUGGCAGCGCAGAAGCAGGU [Exclusion Theophylline B GF 13] | 433 | 295 | 359 | 349 | 338 |
| CUGAGCUGCAGCGAUACCAGUGUGGAGUGAUGUUCCCUGGUCCGGGCUGUUGUUCCCUUGCGCCCUUGGCAGCGCAGGAGCAGGG [Exclusion Theophylline B GF 15] | 506 | 352 | 422 | 378 | 383 |
| CUUAGGAGUGGUGUUGAUUAGGGAGCGGAAGGAGCGCCAAUGAUGGCAGGUAGGUCGCCGGAAUGUAGUGAUGUUGCAUAGAGGG [ExArgA.S] | 476 | 225 | 415 | 236 | 267 |
| CUUCUCCUUCCAAUCUCGGCCAACACGGGACGAGGACCGGUACGGCCGCCACUCGUGCAGUGAUGUUGCACGAUGGUGACGGAGA [Queronmaan] | 95.7 | 87.6 | 94.2 | 86.9 | 217 |
| GAAAGAAAGAAUGAUACCAGACACCCGAGUGAUGUUCGGAGCAGAGUGAUGUUCUAAUAAGUCCCUUGGCAGCAUAAAAGAAAAG [Same State Theophylline B GF 1] | 240 | 256 | 322 | 331 | 246 |
| GACAUCUAUCGCCGAUAGUGUUUAUCUUGGGAGGAUAUGUCAGCGGACAGAAGGCCCAGUGAUGUUGGGUAGAUGACCGUUGCCU [Orerditi] | 337 | 123 | 131 | 131 | 128 |
| GACGGGCAGUGAUGUUGCCGGUCUCUUGGACGAGGACCGGUACGGCCGCCACUCGAUCUGAUGCAAGAAUCGCAUCUUUUAAUAA [Biququan] | 151 | 103 | 166 | 312 | 273 |
| GACUCAUGUAGAAGGAGCGUCAGAAGUUAUAGACAUGAGUGAUGUUCAUGUUAGCUGAUUUGACAGGUAGGUCGCUACAGCAGGA [KL-SSArg B16 #analogue] | 126 | 100 | 126 | 114 | 121 |
| GAGAUAGAGGCGGCCGCCACUAGUGAUGUUAGUGAUGUUAGAAAGAGAAUAGAACAGGGAUUUGAUAGGACCGGGCCAGAUGGAG [wwemullin] | 57.6 | 51.3 | 48.9 | 48.7 | 63 |
| GAGCCAACCGUCGAUACCAGCCGCACGUCAUUCACUCAAUGCUGAGGAGCCAGUGAUGUUGGCCCUUGGCAGCGAAGCAACGAUC [theeternabot_exclusion_KL_Theo_B_43] | 97.5 | 91.8 | 93.5 | 93.5 | 93.2 |
| GAGUCGGCACAAGGAUAUAGGUGUAGUGAUGUUAUGUCUCCUUGACUCACUCGUUACCCUCAACGUCUAGAAGGUGUGAAUGCAG [theeternabot_exclusion_KL_FMN_B_46] | 328 | 240 | 290 | 229 | 251 |
| GAUAUAGUGAUGUUAUAUACUGAUAGACAACGAGGACCGGUACGGCCGCCACUCGAGAGGGUGAAAAUGAUGAUAAAAUAAUAAU [#01 K4 Tryptophan A Exclusion] | 341 | 283 | 341 | 374 | 269 |
| GAUCCAUGACAAGGAUAUUCGCCAACGGUGCCGGAGUGAUGUUCUGCACAACAGACUACAAGUAAGGAAGAAGGUGUCAGUUACC [theeternabot_sameState_KL_FMN_B_29] | 595 | 843 | 946 | 609 | 561 |
| GAUGAUCGCGCGGCCGCCACUGGUCAGUGAUGUUGACAUUAAUGCGCCGAGUAGUAACGGCGCAGCAGGACCGGGCGCGAUGUAG [#12 K4 Tryptophan B Same State] | 144 | 141 | 145 | 121 | 163 |
| GAUUCCCAAGCGGCCGCCACUUAUAGUGAUGUUAUAGGGACUGCGGAUCAGGACAAUCAUACAUAAAGGACCGGGCUAUUCUGAC [theeternabot_exclusion_KL_Trp_B_1] | 264 | 246 | 305 | 255 | 261 |
| GCAAAACUCAGUGAUGUUGAGAUAUCGGAAGGAGCGCGUGAAAACGCAGGUAGGUCGCCGAUUCAAUGAGUUUCUCGUUGUUUGC [Arginine A K4 20] | 248 | 305 | 318 | 303 | 288 |
